This note sets out measurements from the domain aggregation screens of Martell et al. (2025).

This data set can be described thus: soluble fraction after stress (log2 fold change); higher = more stays soluble; pooled small domains, quantitative proteomics. As to conditions: stress: 50 degC. The gist of the method: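 The stress applied to every library was 50°C. These custom libraries of small protein domains were pooled and measured at high throughput with quantitative proteomics as the read-out. Aggregation propensity is expressed as the base-two logarithm of the fold change in how much of each protein remains soluble. The higher the value, the more of that protein stays in solution.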
As to “HMGRFAETVEHIVAAQLARRQGIPTMEQFASFFNVSRATFQRRLGEEGETLEQIKQRVRLRLALELLHP”, the “soluble fraction (log2)” value is -2.86.

On to “HMGRGAAKGPLKELGLDPVTGRPLVVKDGKFGMYVTDGETNAGLRRGDLVEQLTLDRGMELLAERRARADQ”, for which the “soluble fraction (log2)” value was determined as 0.203.

“HMGRKIDDPSSMTGAEKAAVILLALGDEQRQLWEMMDDEEIRVVSQAMVNLGNVTSGAVEKLIMEFVGSMS”: the “soluble fraction (log2)” value was -0.243.

On to “HMGRKPATTIPLQVRNAVLDLYRTKYYGANFQHYTELLHEHEGIRISTSSVAKILEAEYILSPK”, for which the “soluble fraction (log2)” value is -1.69.

Consider “HMGRKPVSPEIVERVLQLAKSNPDWGYEHIAGTMRYLGYNVSATTIRHILEANGIVPDPERRL”, for which the “soluble fraction (log2)” value was -0.128.

On to “HMGRMSLDEAKAVILPIGEHKGHTMGEVLAIKPGLIDFYASQKFNSGKYPYLKEAAQVILENQG”, for which the “soluble fraction (log2)” value was -0.109.

On to “HMGRRERKKLQSRRAIIEAAVTEFKEKGFREASVADIMTRADLGLGTFYNYFQSKEDILMSLLS”, for which the “soluble fraction (log2)” value is -0.0676.

“HMGRRRAAPQEPLRQFPASPVTGQPIKLLLGQYGPYVTDGTTNASLPKGSSPDELTFEQATQLLAERALRG”: the “soluble fraction (log2)” value was determined as 0.109.

In the case of “HMGRSARVQQAVHQAVRALLEENDGERSALSVPLVAERAGVNSSTIYRRWGDLPRLLAAVASN”, the “soluble fraction (log2)” value is -0.481.

Turning to “HMGRTVKGVNFVGLRDAGDPVDLAEIYSKEGADELVFLDITATHEKRKTLLDLVTRVAERINIPFTVGGGI”, the “soluble fraction (log2)” value is -0.015.

In the case of “HMGSALLEAGADDAGQRLDQWLAAKLGPSISRSRVQALIKQGAVLVGGKPAGEAKRKLVAGDVVSVALPEP”, the “soluble fraction (log2)” value is 0.0853.

On to “HMGSDLVAWAQTRIGRHPEEAADVIAALIDRHGEARVRAASRSLLARKFAHASDLRTAIDAAIG”, for which the “soluble fraction (log2)” value is -0.0161.

For “HMGSEEMLGALGVVERATDDGDWWIAVHGEHWRARSAQALVPGDRVRVARIDGLTLTVTPIA”, the “soluble fraction (log2)” value is -0.0957.

“HMGSEGVKVEDTIGMSEAEATATLGKSGFVVNKTESHDPYIKAGNVITQSPAAGSKAPKGTTVTLTISLGP”: the “soluble fraction (log2)” value was determined as 0.131.

Turning to “HMGSEISYSEFLNRVEQGQVAAVRLDGEQIFITGPTGEAYQTIQPRNTDVLPDLREAGVEIQAAPQ”, the “soluble fraction (log2)” value is -0.0723.

Consider “HMGSEYPSNPLASRWAKGVRLYHDEWGYGVIQAARGSEPDDYVITVRFESGAEKSFLPKFQAHSLMIVKD”, for which the “soluble fraction (log2)” value was -0.161.

“HMGSGQVTLPDLEGKSMKEVARILSQLGLHLSPDGHGLAFKQSPAAGTRVPVGSTIKVSFQPL”: the “soluble fraction (log2)” value came out at 0.0366.

Take “HMGSKKAIPYVSGMSETEAQNELEEAGFKVTSSFQYDDSVESGKVISTTPEAGTKAEKGSTVTMLVSQGSN”: the “soluble fraction (log2)” value is -0.114.

In the case of “HMGSLVQTAMQAVTKHIHDNAMRVGDTLPGEGHFAETLGVSRAVMREAFGALAALKLIDVGNGRKPRVGR”, the “soluble fraction (log2)” value is -0.819.

With “HMGSNATIKYAIKGDESLVQVAQKFNVTVSELRSWNNISAFENAKTGQELVINVPASKYETYFALANT”, the “soluble fraction (log2)” value was 0.22.

In the case of “HMGSNLSFDLSQIIASRYQEKAAELGLTAPSLARTDLSPQEQATAEVVARAIIADYYDQRVAPFNDLIPQ”, the “soluble fraction (log2)” value is -0.394.

As to “HMGSNRPLALGDVVRIEGSKTLGTILELNAKDAVVALGALKTTLPLSRIHHASSQESQRLKRQATQAPLR”, the “soluble fraction (log2)” value turned out to be 0.123.

In the case of “HMGSPKLVIKNGQVDYQVLKKEKLDLLELTSLLRGQNTFSIREIEYAIIEPNGVITVIKKPEYQSVVKGDL”, the “soluble fraction (log2)” value was -0.239.

Turning to “HMGSPVTAVMNRVLNETERQIVTLHVISGFKHREIAELLEKPVGTVLWTYNNALGKMRKAMQRE”, the “soluble fraction (log2)” value is -1.33.

Take “HMGSRRFGDSNHAAKLTEEQVVEIRELAAAGATTKFLAEMVGMHPNYVGLILRGLSWPEAGGPLRVA”: the “soluble fraction (log2)” value is 0.11.

As to “HMGSVDMVYGDHKINSEHMDLSFKNQTAVLYDKVNYKSSLSMLSADKILVNFLNKYTKIEMNDENNNILIQ”, the “soluble fraction (log2)” value came to 0.059.

As to “HMGSVNDNVQKLTSQIGETTETGDTITPEDVELYKKMVDPLSTMAQKLEAAEILKLKGIIGSNGIIV”, the “soluble fraction (log2)” value was -0.0442.
